Laboratory results from publication PMC9187738, “Live imaging-based assay for visualising species-specific interactions in gamete adhesion molecules” (Scientific Reports, 2022).

Tests used:
mouse mCherry-JUNO = biological target: T1, mouse mCherry-JUNO (mouse, UniProt Q9EQF4 20-222); test: live imaging-based adhesion molecule (LIAM) assay; BHK cells, non-inducible expression (cytomegalovirus promoter); separately transfected cells mixed in equal amounts 4 h after transfection, incubated 20 h, imaged every 6 min for 12 h at 40x, 37 °C, 5% CO2; read-outs: accumulation at the cell interface and translocation to the opposite cell, % of contacting cell pairs; settings: partners not purified
T1 construct: JUNO, mouse; CDS amplified from mouse cDNA; also called mouse JUNO; source: BHK-21 cells, transfected, on cells (mifepristone-inducible or cytomegalovirus promoter); also HEK293T cells, transfected, on cells; not shown: mCherry, internal (just after the signal peptide), kept
T1 sequence (looked up): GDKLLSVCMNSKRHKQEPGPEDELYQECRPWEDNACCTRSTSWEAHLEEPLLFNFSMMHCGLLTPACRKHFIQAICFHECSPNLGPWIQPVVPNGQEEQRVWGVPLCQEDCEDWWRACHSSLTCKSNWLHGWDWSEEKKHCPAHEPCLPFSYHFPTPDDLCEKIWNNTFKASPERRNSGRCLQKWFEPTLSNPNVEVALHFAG

human JUNO = biological target: T2, human JUNO (human, UniProt A6ND01 20-228); test: as above; settings: partners not purified
T2 construct: JUNO, human; gene synthesised artificially (Integrated DNA technologies); also called JUNO Human; source: BHK-21 cells, transfected, on cells; not shown: mCherry, internal (just after the signal peptide), kept
T2 sequence (A6ND01 20-228): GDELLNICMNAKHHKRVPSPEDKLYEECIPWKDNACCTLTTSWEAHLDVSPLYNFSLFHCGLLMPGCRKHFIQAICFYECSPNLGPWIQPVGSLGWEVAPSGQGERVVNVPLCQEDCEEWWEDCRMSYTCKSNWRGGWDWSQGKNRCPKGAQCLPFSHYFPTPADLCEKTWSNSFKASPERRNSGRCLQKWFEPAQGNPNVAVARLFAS

B1: mouse IZUMO1-Venus (natural protein, UniProt Q9D9J7 22-397, looked up)
chain: CIKCDQFVTDALKTFENTYLNDHLPHDIHKNVMRMVNHEVSSFGVVTSAEDSYLGAVDENTLEQATWSFLKDLKRITDSDLKGELFIKELLWMLRHQKDIFNNLARQFQKEVLCPNKCGVMSQTLIWCLKCEKQLHICRKSLDCGERHIEVHRSEDLVLDCLLSWHRASKGLTDYSFYRVWENSSETLIAKGKEPYLTKSMVGPEDAGNYRCVLDTINQGHATVIRYDVTVLPPKHSEENQPPNIITQEEHETPVHVTPQTPPGQEPESELYPELHPELYPELIPTVAQNPEKKMKTRLLILLTLGFVVLVASIIISVLHFRKVSAKLKNASDEVKPTASGSKSDQSLSQQMGLKKASQADFNSDYSGDKSEATEN
notes: IZUMO1, mouse; CDS amplified from mouse cDNA; The methods say Venus or mTurquoise2 for IZUMO1, SPACA6 and CD9; the parent of the W148A mutant is named IZUMO-Venus; also called IZUMO-Venus; source: BHK-21 cells, transfected, on cells (mifepristone-inducible or cytomegalovirus promoter); also HEK293T cells, transfected, on cells; not shown: Venus, C-terminal, kept
Mouse mCherry-JUNO
  IZUMO1 accumulation (% of contacting cell pairs): 72%
Human JUNO
  IZUMO1 accumulation (% of contacting cell pairs): 50%

B2: human IZUMO1 (natural protein, UniProt Q8IYV9 22-350, looked up)
chain: CVICDPSVVLALKSLEKDYLPGHLDAKHHKAMMERVENAVKDFQELSLNEDAYMGVVDEATLQKGSWSLLKDLKRITDSDVKGDLFVKELFWMLHLQKETFATYVARFQKEAYCPNKCGVMLQTLIWCKNCKKEVHACRKSYDCGERNVEVPQMEDMILDCELNWHQASEGLTDYSFYRVWGNNTETLVSKGKEATLTKPMVGPEDAGSYRCELGSVNSSPATIINFHVTVLPKMIKEEKPSPNIVTPGEATTESSISLQPLQPEKMLASRLLGLLICGSLALITGLTFAIFRRRKVIDFIKSSLFGLGSGAAEQTQVPKEKATDSRQQ
notes: IZUMO1, human; gene synthesised artificially (Integrated DNA technologies); also called IZUMO1 Human; source: BHK-21 cells, transfected, on cells; also HEK293T cells, transfected, on cells; not shown: Venus or mTurquoise2, C-terminal, kept
Human JUNO
  IZUMO1 accumulation (% of contacting cell pairs): 27%
